# How the values were obtained:
# rat GLP-1-R (rat) = rat GLP-1-R (rat) (UniProt P32301); experiment: cell-based or functional assay
# [1] = target: human Gcg receptor (human) (UniProt P47871); experiment: cell-based or functional assay
# Chain of human Gcg receptor (human) (P47871 26-477): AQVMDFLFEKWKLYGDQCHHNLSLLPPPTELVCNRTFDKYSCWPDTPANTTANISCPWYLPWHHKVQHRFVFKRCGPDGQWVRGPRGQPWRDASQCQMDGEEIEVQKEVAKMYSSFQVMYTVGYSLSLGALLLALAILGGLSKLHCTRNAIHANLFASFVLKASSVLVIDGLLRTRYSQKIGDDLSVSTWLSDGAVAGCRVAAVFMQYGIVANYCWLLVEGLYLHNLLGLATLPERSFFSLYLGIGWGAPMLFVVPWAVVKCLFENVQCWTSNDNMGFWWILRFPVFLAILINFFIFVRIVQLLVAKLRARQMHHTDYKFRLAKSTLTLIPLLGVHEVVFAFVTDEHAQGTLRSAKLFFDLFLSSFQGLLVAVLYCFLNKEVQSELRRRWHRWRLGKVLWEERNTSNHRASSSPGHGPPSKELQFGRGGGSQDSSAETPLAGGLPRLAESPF
# Chain of Wild type human OXM (ligand) (peptide): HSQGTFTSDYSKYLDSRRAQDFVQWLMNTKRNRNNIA
substance,measurement,setting,value
Semaglutide (peptide),"Emax (%), cAMP production in INS1 832-3 cells",rat GLP-1-R (rat),107%
Wild type human OXM (ligand),"Emax (%), cAMP production in primary human hepatocytes",[1],90%

# From US20160368960A1
